Measured values published in IntAct's records for PubMed 32296183.

B1: Ceroid-lipofuscinosis neuronal protein 6 (Homo sapiens), Q9NWW5 (parent)
chain: MEATRRRQHLGATGGPGAQLGASFLQARHGSVSADEAARTAPFHLDLWFYFTLQNWVLDFGRPIAMLVFPLEWFPLNKPSVGDYFHMAYNVITPFLLLKLIERSPRTLPRSITYVSIIIFIMGASIHLVGDSVNHRLLFSGYQHHLSVRENPIIKNLKPETLIDSFELLYYYDEYLGHCMWYIPFFLILFMYFSGCFTASKAESLIPGPALLLVAPSGLYYWYLVTEGQIFILFIFTFFAMLALVLHQKRKRLFLDSNGLFLFSSFALTLLLVALWVAWLWNDPVLRKKYPGVIYVPEPWAFYTLHVSSRH
B2: Very-long-chain enoyl-CoA reductase (Homo sapiens), Q9NZ01 (parent)
chain: MKHYEVEILDAKTREKLCFLDKVEPHATIAEIKNLFTKTHPQWYPARQSLRLDPKGKSLKDEDVLQKLPVGTTATLYFRDLGAQISWVTVFLTEYAGPLFIYLLFYFRVPFIYGHKYDFTSSRHTVVHLACICHSFHYIKRLLETLFVHRFSHGTMPLRNIFKNCTYYWGFAAWMAYYINHPLYTPPTYGAQQVKLALAIFVICQLGNFSIHMALRDLRPAGSKTRKIPYPTKNPFTWLFLLVSCPNYTYEVGSWIGFAIMTQCLPVALFSLVGFTQMTIWAKGKHRSYLKEFRDYPPLRMPIIPFLL
partner: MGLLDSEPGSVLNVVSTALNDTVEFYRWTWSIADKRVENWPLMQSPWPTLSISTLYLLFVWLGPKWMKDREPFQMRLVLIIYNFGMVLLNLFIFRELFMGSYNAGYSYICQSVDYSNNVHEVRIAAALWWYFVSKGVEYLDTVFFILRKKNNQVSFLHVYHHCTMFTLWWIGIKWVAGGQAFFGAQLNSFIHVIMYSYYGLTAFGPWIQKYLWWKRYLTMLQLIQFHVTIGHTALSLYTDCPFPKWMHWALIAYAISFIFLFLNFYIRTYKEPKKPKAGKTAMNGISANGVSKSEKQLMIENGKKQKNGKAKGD
B3: Catenin alpha-3 (Homo sapiens), Q9UI47-2 (parent)
chain: MSAETPITLNIDPQDLQVQTFTVEKLLEPLIIQVTTLVNCPQNPSSRKKGRSKRASVLLASVEEATWNLLDKGEKIAQEATVLKDELTASLEEVRKESEALKVSAERFTDDPCFLPKREAVVQAARALLAAVTRLLILADMIDVMCLLQHVSAFQRTFESLKNVANKSDLQKTYQKLGKELENLDYLAFKRQQDLKSPNQRDEIAGARASLKENSPLLHSICSACLEHSDVASLKASKDTVCEEIQNALNVISNASQGIQNMTTPPEPQAATLGSALDELENLIVLNPLTVTEEEIRPSLEKRLEAIISGAALLADSSCTRDLHRERIIAECNAIRQALQDLLSEYMNNAGKKERSNTLNIALDNMCKKTRDLRRQLRKAIIDHVSDSFLDTTVPLLVLIEAAKNGREKEIKEYAAIFHEHTSRLVEVANLACSMSTNEDGIKIVKIAANHLETLCPQIINAALALAARPKSQAVKNTMEMYKRTWENHIHVLTEAVDDITSIDDFLAVSGMFLFF
partner: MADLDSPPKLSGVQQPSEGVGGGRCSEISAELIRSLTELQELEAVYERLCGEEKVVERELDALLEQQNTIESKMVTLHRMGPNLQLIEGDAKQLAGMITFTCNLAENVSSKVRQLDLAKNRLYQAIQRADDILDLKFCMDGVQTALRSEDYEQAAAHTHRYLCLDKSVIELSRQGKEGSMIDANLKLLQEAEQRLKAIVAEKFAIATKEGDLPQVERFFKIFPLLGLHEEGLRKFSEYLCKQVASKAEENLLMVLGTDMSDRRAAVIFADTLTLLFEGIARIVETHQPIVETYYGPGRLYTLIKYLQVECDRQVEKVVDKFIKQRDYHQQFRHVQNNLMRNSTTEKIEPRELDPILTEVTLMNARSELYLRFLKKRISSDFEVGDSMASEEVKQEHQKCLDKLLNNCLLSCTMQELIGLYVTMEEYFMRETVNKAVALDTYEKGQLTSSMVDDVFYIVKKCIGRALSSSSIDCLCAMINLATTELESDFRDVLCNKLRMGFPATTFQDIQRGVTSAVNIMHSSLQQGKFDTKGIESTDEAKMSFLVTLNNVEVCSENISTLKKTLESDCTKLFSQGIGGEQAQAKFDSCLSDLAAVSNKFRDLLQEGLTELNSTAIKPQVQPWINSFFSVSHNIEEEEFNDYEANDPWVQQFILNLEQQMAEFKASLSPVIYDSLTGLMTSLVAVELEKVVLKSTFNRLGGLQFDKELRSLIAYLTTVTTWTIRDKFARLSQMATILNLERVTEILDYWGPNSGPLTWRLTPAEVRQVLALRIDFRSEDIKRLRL
B4: Transmembrane protein 43 (Homo sapiens), Q9BTV4 (parent)
chain: MAANYSSTSTRREHVKVKTSSQPGFLERLSETSGGMFVGLMAFLLSFYLIFTNEGRALKTATSLAEGLSLVVSPDSIHSVAPENEGRLVHIIGALRTSKLLSDPNYGVHLPAVKLRRHVEMYQWVETEESREYTEDGQVKKETRYSYNTEWRSEIINSKNFDREIGHKNPSAMAVESFMATAPFVQIGRFFLSSGLIDKVDNFKSLSLSKLEDPHVDIIRRGDFFYHSENPKYPEVGDLRVSFSYAGLSGDDPDLGPAHVVTVIARQRGDQLVPFSTKSGDTLLLLHHGDFSAEEVFHRELRSNSMKTWGLRAAGWMAMFMGLNLMTRILYTLVDWFPVFRDLVNIGLKAFAFCVATSLTLLTVAAGWLFYRPLWALLIAGLALVPILVARTRVPAKKLE
partner: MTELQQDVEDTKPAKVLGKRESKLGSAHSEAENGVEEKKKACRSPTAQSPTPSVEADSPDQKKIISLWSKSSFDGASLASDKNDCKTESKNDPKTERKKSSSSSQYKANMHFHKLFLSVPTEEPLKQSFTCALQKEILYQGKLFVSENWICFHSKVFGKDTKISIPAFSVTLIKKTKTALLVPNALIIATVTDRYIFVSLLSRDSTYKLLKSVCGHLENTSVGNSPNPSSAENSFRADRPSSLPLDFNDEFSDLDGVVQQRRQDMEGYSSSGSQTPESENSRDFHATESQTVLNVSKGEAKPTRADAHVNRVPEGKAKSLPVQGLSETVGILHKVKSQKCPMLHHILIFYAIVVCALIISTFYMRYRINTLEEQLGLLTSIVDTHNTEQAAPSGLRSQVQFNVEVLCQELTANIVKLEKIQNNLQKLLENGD
B5: Golgi SNAP receptor complex member 2 (Homo sapiens), O14653 (parent)
chain: MDPLFQQTHKQVHEIQSCMGRLETADKQSVHIVENEIQASIDQIFSRLERLEILSSKEPPNKRQNARLRVDQLKYDVQHLQTALRNFQHRRHAREQQERQREELLSRTFTTNDSDTTIPMDESLQFNSSLQKVHNGMDDLILDGHNILDGLRTQRLTLKGTQKKILDIANMLGLSNTVMRLIEKRAFQDKYFMIGGMLLTCVVMFLVVQYLT
partner: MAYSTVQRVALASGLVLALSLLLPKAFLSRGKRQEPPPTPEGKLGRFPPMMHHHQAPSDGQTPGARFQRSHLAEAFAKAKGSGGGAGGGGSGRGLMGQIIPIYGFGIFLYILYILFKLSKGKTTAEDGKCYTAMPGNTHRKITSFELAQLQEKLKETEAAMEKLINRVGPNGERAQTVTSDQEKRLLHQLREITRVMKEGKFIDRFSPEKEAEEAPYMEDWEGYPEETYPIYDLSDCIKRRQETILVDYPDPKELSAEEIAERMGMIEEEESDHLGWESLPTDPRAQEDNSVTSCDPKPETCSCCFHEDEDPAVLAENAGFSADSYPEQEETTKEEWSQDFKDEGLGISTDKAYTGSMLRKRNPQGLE
B6: Golgi SNAP receptor complex member 2 (Homo sapiens), O14653 (parent)
chain: B5 chain
partner: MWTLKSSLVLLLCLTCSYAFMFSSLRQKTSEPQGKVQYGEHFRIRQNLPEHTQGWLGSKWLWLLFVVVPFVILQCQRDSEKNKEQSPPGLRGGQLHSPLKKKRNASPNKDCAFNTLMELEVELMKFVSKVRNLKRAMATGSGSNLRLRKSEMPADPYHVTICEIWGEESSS

Variants of: B1
Conditions: with stx1a_human STX1A
R103Q was tested, and the “effect of a mutation on the interaction” value was “with no effect”.

Variants of: B2
Conditions: with elov4_human ELOVL4, Q9GZR5
With P182L the “effect of a mutation on the interaction” value was “disrupting interaction strength”.

Variants of: B3
Conditions: with cog4_human COG4, Q9H9E3
In the case of V94D, the “effect of a mutation on the interaction” value is reported as “with no effect”.

Variants of: B4
Conditions: with grm2b_human GRAMD2B
In the case of E142K, the “effect of a mutation on the interaction” value is reported as “with no effect”. Y371H was tested, and the “effect of a mutation on the interaction” value was “with no effect”. With I91V the “effect of a mutation on the interaction” value was “with no effect”. In the case of E85K, the “effect of a mutation on the interaction” value is reported as “with no effect”.

Variants of: B5
Conditions: with RIC3, Q7Z5B4-5
G144W was tested, and the “effect of a mutation on the interaction” value was “disrupting interaction strength”.

Variants of: B6
Conditions: with FAM209A
G144W was tested, and the “effect of a mutation on the interaction” value was “with no effect”.
